Article PMC7515722, “Participation of RecJ in the base excision repair pathway of Deinococcus radiodurans”

Target: T1, drRecJ R109A (Deinococcus radiodurans, UniProt D0EM60 1-705, R109A)
T1 sequence: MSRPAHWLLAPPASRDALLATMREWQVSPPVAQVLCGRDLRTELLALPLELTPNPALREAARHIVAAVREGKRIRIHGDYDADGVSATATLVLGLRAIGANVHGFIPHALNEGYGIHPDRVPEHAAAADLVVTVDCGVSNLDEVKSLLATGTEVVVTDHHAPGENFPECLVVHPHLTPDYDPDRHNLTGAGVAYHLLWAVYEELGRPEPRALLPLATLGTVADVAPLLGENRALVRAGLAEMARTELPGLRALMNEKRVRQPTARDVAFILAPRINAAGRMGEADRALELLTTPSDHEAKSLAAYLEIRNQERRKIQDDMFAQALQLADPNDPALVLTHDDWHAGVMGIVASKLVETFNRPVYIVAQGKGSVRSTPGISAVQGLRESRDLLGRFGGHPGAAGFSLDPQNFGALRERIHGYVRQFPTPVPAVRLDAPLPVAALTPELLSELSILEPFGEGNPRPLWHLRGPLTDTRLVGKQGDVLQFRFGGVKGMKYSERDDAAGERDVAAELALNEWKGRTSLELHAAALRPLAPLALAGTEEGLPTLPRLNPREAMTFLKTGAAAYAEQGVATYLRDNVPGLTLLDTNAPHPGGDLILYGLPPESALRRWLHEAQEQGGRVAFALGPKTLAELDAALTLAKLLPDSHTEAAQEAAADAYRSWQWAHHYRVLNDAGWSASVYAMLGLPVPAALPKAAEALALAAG
Test: EMSA; no Mn2+ added; EMSA: 10 nM 3'-6-FAM ssDNA, 50 mM Tris-HCl pH 7.5, 150 mM KCl, 0.1 mg/ml BSA, 1 mM DTT, 5% glycerol, 20 min at 30 C; 8% native PAGE in TBE; Hill fit
Conditions: protein: recombinant; tags: tag removed with TEV; label: 3'-6-FAM

## AAAAAAAAAAAAAAAAAAAA (ssDNA, 5'-P-dSpacer (tetrahydrofuran abasic, 5'-dRP mimic) added before A1) [KY11, 5'-P-dSpacer-(dA)20]
  binding signal: 2 fold reduction
